Data: patent publication US9284543B2, “Neutral active soluble truncated PH20 polypeptides and uses thereof” (Halozyme, Inc., priority 2008, dated 2016)

Key:
CHO-S cells [1] = assay: Western blot analysis of PH20 expression in media and cells after transient expression; assay type: cell-based, Chinese Hamster; conditions: media versus cells
How it was run: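 CHO-S cells were transiently transfected with mutant PH20-HZ24 plasmids using GeneJuice and expressed for 48-72 h at 37 °C, 5% CO2. Media and cells were harvested separately, with PI-PLC treatment used to release GPI-anchored protein. Non-reduced samples were blotted with rabbit anti-PH20 (0.5 μg/mL), and a band near 66 kDa was scored as PH20.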

[2] = Triton X-114 partition assay; assay type: physicochemical; conditions: partition into aqueous phase of Triton X-114 at 37° C.
Method: Solubility of a hyaluronidase can be determined by any method known to one of the skill in the art. One method for determining solubility is by detergent partitioning. […] For example, the solubility of the PH20 polypeptides described herein is assessed as described in Example 4. Membrane-anchored hyaluronidases, such as lipid-anchored hyaluronidases, including GPI-anchored hyaluronidases, will partition into the detergent-rich phase, but will partition into the detergent-poor or aqueous phase following treatment with Phospholipase C. Phospholipase C is an enzyme that cleaves the […] found in GPI-anchored proteins. Treatment with PLC will cause release of GPI-linked proteins from the outer cell membrane.
The samples were heated to 37° C. for 3 minutes to induce phase separation and centrifuged for 3 min at 4000 g at room temperature. Aqueous and detergent phases were removed for SDS-PAGE analysis and Western blotting. Rabbit anti-PH20 IgG (0.5 μg/mL) was used as the primary antibody and HRP-conjugated goat anti-Rabbit IgG (0.1 ng/mL, Cat#DC03L, EMD) was used as the secondary antibody. Full length human PH20, which partitions strongly into the detergent phase, was used as a control.

[3] = Microtiter hyaluronidase activity assay with biotinylated-hyaluronic acid; assay type: biochemical; conditions: 72 hour post transfection supernatant
CHO-S cells [4] = assay: PI-PLC treatment of expressing cells, Western blot of media and cells; assay type: cell-based, Chinese Hamster; conditions: cells incubated with PI-PLC for 2 hours
How it was run: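 CHO-S cells transiently expressing rHuPH20 or C-terminal truncation mutants were treated with PI-PLC (0.5 units/well, or 3.0 units/dish in serum/detergent-free medium) for 2 h at 37 °C after 48–72 h expression. Untreated and treated media and cell extracts were analysed separately by Western blot for PH20.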

Molecule | pH 5.5 Activity ([3]; Table 6) | pH 7.4 Activity ([3]; Table 6) | pH 5.5 Activity ([3]; Table 6A) | pH 7.4 Activity ([3]; Table 6A) | Expressed in Media (CHO-S cells [1]) | Soluble [2] | Expressed in Media Following Addition of PI-PLC (CHO-S cells [4])
SPAM1-PSTL: C-terminally truncated human PH20, precursor 489 aa (SEQ ID NO:12), mature 454 aa (SEQ ID NO:64) (protein, listed as Homo sapiens, HuPH20 precursor 1-489; mature HuPH20 36-489) chain 1: MGVLKFKHIFFRSFVKSSGVSQIVFTFLLIPCCLTLNFRAPPVIPNVPFLWAWNAPSEFCLGKFDEPLDMSLFSFIGSPRINATGQGVTIFYVDRLGYYPYIDSITGVTVNGGIPQKISLQDHLDKAKKDITFYMPVDNLGMAVIDWEEWRPTWARNWKPKDVYKNRSIELVQQQNVQLSLTEATEKAKQEFEKAGKDFLVETIKLGKLLRPNHLWGYYLFPDCYNHHYKKPGYNGSCFNVEIKRNDDLSWLWNESTALYPSIYLNTQQSPVAATLYVRNRVREAIRVSKIPDAKSPLPVFAYTRIVFTDQVLKFLSQDELVYTFGETVALGASGIVIWGTLSIMRSMKSCLLLDNYMETILNPYIINVTLAAKMCSQVLCQEQGVCIRKNWNSSDYLHLNPDNFAIQLEKGGKFTVRGKPTLEDLEQFSEKFYCSCYSTLSCKEKADVKDTDAVDVCIADGVCIDAFLKPPMETEEPQIFYNASPSTL chain 2: LNFRAPPVIPNVPFLWAWNAPSEFCLGKFDEPLDMSLFSFIGSPRINATGQGVTIFYVDRLGYYPYIDSITGVTVNGGIPQKISLQDHLDKAKKDITFYMPVDNLGMAVIDWEEWRPTWARNWKPKDVYKNRSIELVQQQNVQLSLTEATEKAKQEFEKAGKDFLVETIKLGKLLRPNHLWGYYLFPDCYNHHYKKPGYNGSCFNVEIKRNDDLSWLWNESTALYPSIYLNTQQSPVAATLYVRNRVREAIRVSKIPDAKSPLPVFAYTRIVFTDQVLKFLSQDELVYTFGETVALGASGIVIWGTLSIMRSMKSCLLLDNYMETILNPYIINVTLAAKMCSQVLCQEQGVCIRKNWNSSDYLHLNPDNFAIQLEKGGKFTVRGKPTLEDLEQFSEKFYCSCYSTLSCKEKADVKDTDAVDVCIADGVCIDAFLKPPMETEEPQIFYNASPSTL | 1.089 Units/ml | 1.557 Units/ml | 3.321 Units/ml | 1.985 Units/ml | YES | YES | Initially in media
SPAM1-SATM: C-terminally truncated human PH20, precursor 493 aa (SEQ ID NO:10), mature 458 aa (SEQ ID NO:62) (protein, listed as Homo sapiens, HuPH20 precursor 1-493; esHuPH20 36-493) chain 1: MGVLKFKHIFFRSFVKSSGVSQIVFTFLLIPCCLTLNFRAPPVIPNVPFLWAWNAPSEFCLGKFDEPLDMSLFSFIGSPRINATGQGVTIFYVDRLGYYPYIDSITGVTVNGGIPQKISLQDHLDKAKKDITFYMPVDNLGMAVIDWEEWRPTWARNWKPKDVYKNRSIELVQQQNVQLSLTEATEKAKQEFEKAGKDFLVETIKLGKLLRPNHLWGYYLFPDCYNHHYKKPGYNGSCFNVEIKRNDDLSWLWNESTALYPSIYLNTQQSPVAATLYVRNRVREAIRVSKIPDAKSPLPVFAYTRIVFTDQVLKFLSQDELVYTFGETVALGASGIVIWGTLSIMRSMKSCLLLDNYMETILNPYIINVTLAAKMCSQVLCQEQGVCIRKNWNSSDYLHLNPDNFAIQLEKGGKFTVRGKPTLEDLEQFSEKFYCSCYSTLSCKEKADVKDTDAVDVCIADGVCIDAFLKPPMETEEPQIFYNASPSTLSATM chain 2: LNFRAPPVIPNVPFLWAWNAPSEFCLGKFDEPLDMSLFSFIGSPRINATGQGVTIFYVDRLGYYPYIDSITGVTVNGGIPQKISLQDHLDKAKKDITFYMPVDNLGMAVIDWEEWRPTWARNWKPKDVYKNRSIELVQQQNVQLSLTEATEKAKQEFEKAGKDFLVETIKLGKLLRPNHLWGYYLFPDCYNHHYKKPGYNGSCFNVEIKRNDDLSWLWNESTALYPSIYLNTQQSPVAATLYVRNRVREAIRVSKIPDAKSPLPVFAYTRIVFTDQVLKFLSQDELVYTFGETVALGASGIVIWGTLSIMRSMKSCLLLDNYMETILNPYIINVTLAAKMCSQVLCQEQGVCIRKNWNSSDYLHLNPDNFAIQLEKGGKFTVRGKPTLEDLEQFSEKFYCSCYSTLSCKEKADVKDTDAVDVCIADGVCIDAFLKPPMETEEPQIFYNASPSTLSATM | 0.7335 Units/ml | 0.5715 Units/ml | 0.851 Units/ml | 0.689 Units/ml | YES | YES | Initially in media

The next lines start with results.

pH 5.5 Activity ([3]; Table 6) | pH 7.4 Activity ([3]; Table 6) | pH 5.5 Activity ([3]; Table 6A) | pH 7.4 Activity ([3]; Table 6A) | Molecule | Expressed in Media (CHO-S cells [1]) | Soluble [2] | Expressed in Media Following Addition of PI-PLC (CHO-S cells [4])
1.2375 Units/ml | 0.819 Units/ml |  |  | SPAM1-STLS: C-terminally truncated human PH20, precursor 490 aa (SEQ ID NO:13), mature 455 aa (SEQ ID NO:65) (protein, listed as Homo sapiens, HuPH20 precursor 1-490; mature HuPH20 36-490) chain 1: MGVLKFKHIFFRSFVKSSGVSQIVFTFLLIPCCLTLNFRAPPVIPNVPFLWAWNAPSEFCLGKFDEPLDMSLFSFIGSPRINATGQGVTIFYVDRLGYYPYIDSITGVTVNGGIPQKISLQDHLDKAKKDITFYMPVDNLGMAVIDWEEWRPTWARNWKPKDVYKNRSIELVQQQNVQLSLTEATEKAKQEFEKAGKDFLVETIKLGKLLRPNHLWGYYLFPDCYNHHYKKPGYNGSCFNVEIKRNDDLSWLWNESTALYPSIYLNTQQSPVAATLYVRNRVREAIRVSKIPDAKSPLPVFAYTRIVFTDQVLKFLSQDELVYTFGETVALGASGIVIWGTLSIMRSMKSCLLLDNYMETILNPYIINVTLAAKMCSQVLCQEQGVCIRKNWNSSDYLHLNPDNFAIQLEKGGKFTVRGKPTLEDLEQFSEKFYCSCYSTLSCKEKADVKDTDAVDVCIADGVCIDAFLKPPMETEEPQIFYNASPSTLS chain 2: LNFRAPPVIPNVPFLWAWNAPSEFCLGKFDEPLDMSLFSFIGSPRINATGQGVTIFYVDRLGYYPYIDSITGVTVNGGIPQKISLQDHLDKAKKDITFYMPVDNLGMAVIDWEEWRPTWARNWKPKDVYKNRSIELVQQQNVQLSLTEATEKAKQEFEKAGKDFLVETIKLGKLLRPNHLWGYYLFPDCYNHHYKKPGYNGSCFNVEIKRNDDLSWLWNESTALYPSIYLNTQQSPVAATLYVRNRVREAIRVSKIPDAKSPLPVFAYTRIVFTDQVLKFLSQDELVYTFGETVALGASGIVIWGTLSIMRSMKSCLLLDNYMETILNPYIINVTLAAKMCSQVLCQEQGVCIRKNWNSSDYLHLNPDNFAIQLEKGGKFTVRGKPTLEDLEQFSEKFYCSCYSTLSCKEKADVKDTDAVDVCIADGVCIDAFLKPPMETEEPQIFYNASPSTLS | YES | YES | Initially in media
0.5625 Units/ml | 0.3645 Units/ml | 0.729 Units/ml | 0.851 Units/ml | SPAM1-TLSA: C-terminally truncated human PH20, precursor 491 aa (SEQ ID NO:11), mature 456 aa (SEQ ID NO:63) (protein, listed as Homo sapiens, HuPH20 precursor 1-491; esHuPH20 36-491) chain 1: MGVLKFKHIFFRSFVKSSGVSQIVFTFLLIPCCLTLNFRAPPVIPNVPFLWAWNAPSEFCLGKFDEPLDMSLFSFIGSPRINATGQGVTIFYVDRLGYYPYIDSITGVTVNGGIPQKISLQDHLDKAKKDITFYMPVDNLGMAVIDWEEWRPTWARNWKPKDVYKNRSIELVQQQNVQLSLTEATEKAKQEFEKAGKDFLVETIKLGKLLRPNHLWGYYLFPDCYNHHYKKPGYNGSCFNVEIKRNDDLSWLWNESTALYPSIYLNTQQSPVAATLYVRNRVREAIRVSKIPDAKSPLPVFAYTRIVFTDQVLKFLSQDELVYTFGETVALGASGIVIWGTLSIMRSMKSCLLLDNYMETILNPYIINVTLAAKMCSQVLCQEQGVCIRKNWNSSDYLHLNPDNFAIQLEKGGKFTVRGKPTLEDLEQFSEKFYCSCYSTLSCKEKADVKDTDAVDVCIADGVCIDAFLKPPMETEEPQIFYNASPSTLSA chain 2: LNFRAPPVIPNVPFLWAWNAPSEFCLGKFDEPLDMSLFSFIGSPRINATGQGVTIFYVDRLGYYPYIDSITGVTVNGGIPQKISLQDHLDKAKKDITFYMPVDNLGMAVIDWEEWRPTWARNWKPKDVYKNRSIELVQQQNVQLSLTEATEKAKQEFEKAGKDFLVETIKLGKLLRPNHLWGYYLFPDCYNHHYKKPGYNGSCFNVEIKRNDDLSWLWNESTALYPSIYLNTQQSPVAATLYVRNRVREAIRVSKIPDAKSPLPVFAYTRIVFTDQVLKFLSQDELVYTFGETVALGASGIVIWGTLSIMRSMKSCLLLDNYMETILNPYIINVTLAAKMCSQVLCQEQGVCIRKNWNSSDYLHLNPDNFAIQLEKGGKFTVRGKPTLEDLEQFSEKFYCSCYSTLSCKEKADVKDTDAVDVCIADGVCIDAFLKPPMETEEPQIFYNASPSTLSA | YES | YES | Initially in media
